# Measurements as given in the supplement of paper PMC10724198.
# ± gives the standard deviation of the averaged measurements.
# What was measured:
# [1] = tested on: Saccharomyces cerevisiae; test: protein stability index of tFT-peptide fusion (C-terminal peptide) (PSI (0-1 scale)); higher = more stable (slower turnover)
# Experimental: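 MPS profiling in S. cerevisiae of the tFT-X12 degron library: putative degron peptides plus stable controls, 12 aa, fused to the C-terminus of a sfGFP-mCherry timer. Cells are FACS-sorted into 8 mCherry/sfGFP bins and deep-sequenced. PSI runs from 0 (unstable) to 1 (stable). Backgrounds are wild type, das1Δ and doa10Δ at 30 °C, and wild type, das1Δ, cdc34-1 and cdc53-1 at 37 °C; 2-3 technical replicates each.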
# [2] = tested on: Saccharomyces cerevisiae; test: as above; conditions: genetic background: wild type; temperature: 30 C
# [3] = genetic background: cdc34-1, temperature: 37 C
# [4] = genetic background: cdc53-1, temperature: 37 C
# [5] = genetic background: das1 deletion, temperature: 30 C
# [6] = genetic background: das1 deletion, temperature: 37 C
# [7] = genetic background: doa10 deletion, temperature: 30 C
# [8] = genetic background: wild type, temperature: 30 C
# [9] = genetic background: wild type, temperature: 37 C
# 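Further: PSI is a weighted mean of sequencing reads over stability bins, variants kept only with over 10 reads, mCherry proximal and sfGFP distal, peptide attached via GGGS linker.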
Sequence,"protein stability index [1, 3]","protein stability index [1, 4]","protein stability index [1, 5]","protein stability index [1, 6]","protein stability index [1, 7]","protein stability index [1, 8]","protein stability index [1, 9]",protein stability index [2]
VVCFGCLAFFLG,0.579 ± 0.0076,0.613 ± 0.011,0.461 ± 0.021,0.624 ± 0.044,0.412 ± 0.043,0.409 ± 0.028,0.533 ± 0.027,0.497 ± 0.0057
FAVLWFLYWCSW,0.347 ± 0.0065,0.376 ± 0.019,0.282 ± 0.026,0.422 ± 0.013,0.245 ± 0.025,0.261 ± 0.044,0.387 ± 0.0054,0.348 ± 0.063
NKYNQFKWHINH,0.624 ± 0.12,0.698 ± 0.014,0.624 ± 0.026,0.742 ± 0.019,0.134 ± 0.034,0.136 ± 0.0086,0.295 ± 0.031,0.295 ± 0.0036
VLSWRAWGESGV,0.387 ± 0.02,0.426 ± 0.015,0.466 ± 0.032,0.392 ± 0.014,0.493 ± 0.03,0.468 ± 0.011,0.382 ± 0.007,0.445 ± 0.024
SVAWFIYVARSI,0.529 ± 0.023,0.543 ± 0.072,0.482 ± 0.017,0.611 ± 0.011,0.282 ± 0.0042,0.329 ± 0.011,0.5224 ± 0.0022,0.471 ± 0.038
VILMFELFGVRI,0.324 ± 0.04,0.457 ± 0.019,0.355 ± 0.058,0.4304 ± 0.0029,0.327 ± 0.019,0.313 ± 0.051,0.422 ± 0.054,0.331 ± 0.029
FFLFCWFVPRFS,0.454 ± 0.0056,0.512 ± 0.0079,0.379 ± 0.027,0.553 ± 0.012,0.349 ± 0.014,0.351 ± 0.027,0.498 ± 0.016,0.435 ± 0.018
ILGDPHLALIFP,0.689 ± 0.02,0.757 ± 0.012,0.657 ± 0.026,0.749 ± 0.018,0.652 ± 0.028,0.666 ± 0.021,0.7324 ± 0.0016,0.703 ± 0.022
LLVSCPLVLRFR,0.426 ± 0.048,0.41 ± 0.02,0.437 ± 0.01,0.576 ± 0.058,0.6177 ± 0.0033,0.431 ± 0.028,0.511 ± 0.012,0.53 ± 0.048
HIVWVLQRAFRG,0.511 ± 0.058,0.516 ± 0.0086,0.493 ± 0.021,0.504 ± 0.02,0.506 ± 0.038,0.488 ± 0.016,0.485 ± 0.018,0.509 ± 0.039
KKNTQKKIKLSC,0.629 ± 0.0068,0.733 ± 0.023,0.627 ± 0.035,0.728 ± 0.045,0.15 ± 0.032,0.171 ± 0.011,0.281 ± 0.021,0.358 ± 0.011
MLVWCLFWVACV,0.203 ± 0.026,0.29 ± 0.0085,0.22 ± 0.028,0.355 ± 0.01,0.148 ± 0.011,0.168 ± 0.025,0.258 ± 0.0057,0.236 ± 0.0031
ACCLLFSFAFTV,0.452 ± 0.026,0.5103 ± 0.0014,0.32 ± 0.04,0.517 ± 0.0016,0.187 ± 0.0034,0.213 ± 0.029,0.4184 ± 0.0027,0.301 ± 0.028
RFTCCISLSFLM,0.498 ± 0.013,0.492 ± 0.044,0.467 ± 0.011,0.472 ± 0.014,0.491 ± 0.059,0.489 ± 0.033,0.4341 ± 0.0021,0.489 ± 0.01
RIYIRVSLIAPR,0.523 ± 0.026,0.59 ± 0.05,0.48 ± 0.021,0.5646 ± 0.0015,0.496 ± 0.034,0.48 ± 0.014,0.537 ± 0.017,0.509 ± 0.14
WVDVAGIVAVAG,0.526 ± 0.021,0.55 ± 0.022,0.421 ± 0.026,0.5809 ± 0.0037,0.387 ± 0.0085,0.419 ± 0.016,0.5495 ± 0.003,0.522 ± 0.036
VVFILLFFVFCR,0.253 ± 0.027,0.271 ± 0.016,0.24 ± 0.031,0.371 ± 0.0061,0.296 ± 0.013,0.25 ± 0.021,0.314 ± 0.022,0.294 ± 0.019
VLFFVLGVLVCL,0.319 ± 0.019,0.429 ± 0.019,0.348 ± 0.027,0.471 ± 0.01,0.319 ± 0.021,0.338 ± 0.019,0.441 ± 0.026,0.397 ± 0.043
FPGLPVFFPPPL,0.707 ± 0.052,0.766 ± 0.015,0.689 ± 0.026,0.769 ± 0.012,0.709 ± 0.039,0.703 ± 0.011,0.731 ± 0.012,0.726 ± 0.015
